In this experiment the target is total elastase activity of relaxin-stimulated cultured SUI vaginal fibroblasts. Description: cell-based or functional assay.

Take “alpha-1 antitrypsin (from UniProt P01009 25-418)”: the inhibition of total elastase activity came out at 98%.

Source of the values: patent US20050244448A1.
